What all share (settings): protein: recombinant; tags: N-terminal 6xHis; blunt
In one series the target is SSRP1-C (Homo sapiens, UniProt Q08945 513-709). Kind of series: EMSA (agarose); EMSA buffer, salt, pH and temperature not given in the material; proteins purified in 20 mM Tris-HCl, 200 mM NaCl, pH 7.0.
The target in another series is SSRP1-N (Homo sapiens, UniProt Q08945 1-176). The series is described as above.
For series [1], the target named is T1, SSRP1-M (Homo sapiens, UniProt Q08945 196-430). Kind of series: EMSA (agarose and native PAGE); oligomerized complex in wells; EMSA buffer, salt, pH and temperature not given in the material; proteins purified in 20 mM Tris-HCl, 200 mM NaCl, pH 7.0. On the technique in general: Mobility shift assays separate free from complexed probe on a gel.
T1 sequence (Q08945 196-430): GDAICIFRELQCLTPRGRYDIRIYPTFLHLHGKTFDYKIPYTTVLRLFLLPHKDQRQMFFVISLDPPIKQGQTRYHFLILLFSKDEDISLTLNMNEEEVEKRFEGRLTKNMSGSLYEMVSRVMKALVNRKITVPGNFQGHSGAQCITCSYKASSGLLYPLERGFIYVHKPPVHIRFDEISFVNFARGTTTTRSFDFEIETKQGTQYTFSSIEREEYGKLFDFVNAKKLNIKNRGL
In series [2] the target is T1, SSRP1-M. As to the kind of experiment: EMSA; no obvious difference from linker DNA; EMSA buffer, salt, pH and temperature not given in the material; proteins purified in 20 mM Tris-HCl, 200 mM NaCl, pH 7.0.

Sequence of SSRP1-C (Q08945 513-709): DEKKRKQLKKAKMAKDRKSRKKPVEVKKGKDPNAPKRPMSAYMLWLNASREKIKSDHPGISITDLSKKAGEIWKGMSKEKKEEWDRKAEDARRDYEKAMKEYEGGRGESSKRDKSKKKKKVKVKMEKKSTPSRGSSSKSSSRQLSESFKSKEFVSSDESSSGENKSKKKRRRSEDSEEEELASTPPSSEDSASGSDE
Sequence of SSRP1-N (Q08945 1-176): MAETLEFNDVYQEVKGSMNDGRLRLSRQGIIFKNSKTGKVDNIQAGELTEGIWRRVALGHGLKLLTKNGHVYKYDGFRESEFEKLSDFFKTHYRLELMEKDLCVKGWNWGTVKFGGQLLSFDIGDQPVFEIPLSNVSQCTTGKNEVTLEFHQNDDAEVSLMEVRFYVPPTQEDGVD

B1: 30-bp linker dsDNA (dsDNA)
DNA 1: TCCAGTGCCGGTGTCGCTTGGGTCCCGAGG
DNA 2: CCTCGGGACCCAAGCGACACCGGCACTGGA
For the molecule B1, the results for the binding result in the series with SSRP1-C, with SSRP1-N and with SSRP1-M [1] were “binds”, “no binding” and “binds”, respectively.

B2: GC-rich dsDNA (dsDNA)
DNA 1: GCGGCCCGCGCCCGCCGCCCCGCCGCGGCC
DNA 2: GGCCGCGGCGGGGCGGCGGGCGCGGGCCGC
In the case of B2, in the series with SSRP1-M [2], the binding result was “binds”.

B3: AT-rich dsDNA (dsDNA)
DNA 1: ATAATTTATATTTATTATTTTATTATAATT
DNA 2: AATTATAATAAAATAATAAATATAAATTAT
Regarding B3, the binding result with SSRP1-M [2] is given as “binds”.

For the origin of these results see article PMC4685450, “Crystal Structure of Human SSRP1 Middle Domain Reveals a Role in DNA Binding”.
